Blank lines part the entries; values can stand above or below the binder they belong to.
Key:
[1] = molecular target: T1, human CDH6 with EC5 removed, on HEK293T cells (HEK293T-hCDH6-EC5 deletion) (human, UniProt P55285 54-790); test: FACS, HEK293T-hCDH6-EC5 deletion cells
T1 construct: Signal peptide not removed here
T1 sequence: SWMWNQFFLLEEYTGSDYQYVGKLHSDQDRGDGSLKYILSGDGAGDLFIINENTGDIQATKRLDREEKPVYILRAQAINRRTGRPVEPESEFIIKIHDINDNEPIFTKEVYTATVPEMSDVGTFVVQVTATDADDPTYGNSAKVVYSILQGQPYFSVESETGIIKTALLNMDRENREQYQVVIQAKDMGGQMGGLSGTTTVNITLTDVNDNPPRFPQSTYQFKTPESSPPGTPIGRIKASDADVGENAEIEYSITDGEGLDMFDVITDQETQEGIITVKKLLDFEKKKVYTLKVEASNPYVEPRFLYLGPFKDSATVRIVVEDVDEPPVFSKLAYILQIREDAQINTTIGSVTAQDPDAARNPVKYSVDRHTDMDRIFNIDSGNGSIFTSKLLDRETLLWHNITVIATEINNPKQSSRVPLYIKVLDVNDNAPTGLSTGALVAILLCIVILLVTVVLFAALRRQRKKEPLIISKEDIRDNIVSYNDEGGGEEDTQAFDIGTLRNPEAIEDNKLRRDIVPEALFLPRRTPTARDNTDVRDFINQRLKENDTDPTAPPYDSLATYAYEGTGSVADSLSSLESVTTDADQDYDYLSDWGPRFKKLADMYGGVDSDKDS
From the text: (§1) To confirm the binding epitope of the CDH6 antibody, the sequences after removal of these 5 regions were constructed into pcDNA3.1 vectors (purchased from Youbio, Cat. No. VT1001), and transfected into HEK293T cells (purchased from Cell Bank of Chinese Academy of Sciences, Cat. No. SCSP-502) to obtain 5 CDH6 truncated cell lines: HEK293T-hCDH6-EC1 deletion, HEK293T-hCDH6-EC2 deletion, HEK293T-hCDH6-EC3 deletion, HEK293T-hCDH6-EC4 deletion, and HEK293T-hCDH6-EC5 deletion.
(§2) The binding activity of the CDH6 chimeric antibodies to these 5 cell lines was assayed by FACS.

[2] = molecular target: T2, human CDH6 with EC4 removed, on HEK293T cells (HEK293T-hCDH6-EC4 deletion) (human, UniProt P55285 54-790); test: FACS, HEK293T-hCDH6-EC4 deletion cells
T2 construct: Signal peptide not removed here
T2 sequence: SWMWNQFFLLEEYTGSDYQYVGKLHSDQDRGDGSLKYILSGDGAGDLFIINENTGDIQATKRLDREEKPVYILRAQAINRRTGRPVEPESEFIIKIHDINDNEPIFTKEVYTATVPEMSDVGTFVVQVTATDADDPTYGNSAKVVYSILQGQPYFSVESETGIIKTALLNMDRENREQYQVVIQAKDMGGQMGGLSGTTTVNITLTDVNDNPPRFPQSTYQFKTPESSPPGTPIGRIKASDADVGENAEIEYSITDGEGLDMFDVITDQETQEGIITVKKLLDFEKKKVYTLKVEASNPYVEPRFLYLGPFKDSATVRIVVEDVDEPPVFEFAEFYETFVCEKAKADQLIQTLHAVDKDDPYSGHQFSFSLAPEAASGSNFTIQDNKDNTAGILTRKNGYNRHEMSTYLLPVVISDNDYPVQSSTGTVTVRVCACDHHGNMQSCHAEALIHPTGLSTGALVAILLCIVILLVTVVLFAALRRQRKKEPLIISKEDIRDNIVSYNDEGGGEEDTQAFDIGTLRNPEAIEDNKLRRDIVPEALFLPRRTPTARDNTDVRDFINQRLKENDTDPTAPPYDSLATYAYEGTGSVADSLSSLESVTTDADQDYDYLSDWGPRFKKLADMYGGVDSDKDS
From the text: as §1, §2

[3] = molecular target: T3, human CDH6 with EC1 removed, on HEK293T cells (HEK293T-hCDH6-EC1 deletion) (human, UniProt P55285 160-790); test: FACS, HEK293T-hCDH6-EC1 deletion cells
T3 construct: Signal peptide not removed here
T3 sequence: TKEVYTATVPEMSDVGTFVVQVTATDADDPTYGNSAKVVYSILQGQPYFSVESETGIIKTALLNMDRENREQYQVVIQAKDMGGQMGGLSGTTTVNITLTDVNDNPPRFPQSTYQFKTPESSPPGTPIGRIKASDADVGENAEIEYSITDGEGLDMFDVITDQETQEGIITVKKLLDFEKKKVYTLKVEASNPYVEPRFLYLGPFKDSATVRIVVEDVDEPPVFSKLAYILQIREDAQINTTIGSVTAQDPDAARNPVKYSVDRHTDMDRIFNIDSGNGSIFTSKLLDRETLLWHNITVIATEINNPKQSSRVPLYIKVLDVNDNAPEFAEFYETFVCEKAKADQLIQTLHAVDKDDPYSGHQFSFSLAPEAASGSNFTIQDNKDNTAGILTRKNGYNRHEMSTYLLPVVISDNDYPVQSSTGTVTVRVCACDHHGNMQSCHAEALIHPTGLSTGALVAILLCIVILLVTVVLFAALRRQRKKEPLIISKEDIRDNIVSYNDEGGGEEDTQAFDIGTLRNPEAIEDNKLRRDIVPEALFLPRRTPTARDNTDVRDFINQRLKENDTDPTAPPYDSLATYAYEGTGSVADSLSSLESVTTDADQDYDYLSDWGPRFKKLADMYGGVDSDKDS

[4] = molecular target: T4, human CDH6 with EC2 removed, on HEK293T cells (HEK293T-hCDH6-EC2 deletion) (human, UniProt P55285 54-790); test: FACS, HEK293T-hCDH6-EC2 deletion cells
T4 construct: Signal peptide not removed here
T4 sequence: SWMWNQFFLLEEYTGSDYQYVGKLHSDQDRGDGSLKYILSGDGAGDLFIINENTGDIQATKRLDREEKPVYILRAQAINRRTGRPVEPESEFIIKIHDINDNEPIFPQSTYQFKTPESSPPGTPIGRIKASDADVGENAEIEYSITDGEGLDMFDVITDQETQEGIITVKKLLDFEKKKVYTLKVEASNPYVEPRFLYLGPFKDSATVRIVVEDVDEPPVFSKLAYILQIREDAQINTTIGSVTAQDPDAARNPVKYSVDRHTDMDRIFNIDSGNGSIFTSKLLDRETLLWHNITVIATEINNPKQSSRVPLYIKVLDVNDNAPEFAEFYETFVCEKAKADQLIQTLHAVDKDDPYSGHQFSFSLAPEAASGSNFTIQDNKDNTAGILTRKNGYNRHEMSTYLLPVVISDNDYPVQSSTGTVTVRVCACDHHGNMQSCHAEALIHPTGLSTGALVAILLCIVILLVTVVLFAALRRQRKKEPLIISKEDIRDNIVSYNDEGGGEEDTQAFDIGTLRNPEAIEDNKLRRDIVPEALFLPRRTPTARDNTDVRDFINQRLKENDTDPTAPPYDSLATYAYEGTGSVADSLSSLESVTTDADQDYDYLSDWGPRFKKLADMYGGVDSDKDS

B3: CHI-CDH6-1 (antibody, human IgG1, kappa, V domains shown)
VH: QVQLQQPGAELVRPGSSVKLSCKASGYTFTNYWMHWVKQRPIEGLEWIGDIDPSHSETHYTQKFKDKATLTVDKSSSTAYMQLSSLTSEDSAVYYCARGDLGRFDYWGQGTTLTVSS
VL: DIVLTQSPASLAVSLGQRATISCRASESVSIHGTHLMHWYQQKSGQPPKLLIYAASNLESGVPARFSGSGSETDFTFNIHPVEEEDAATYFCQQSFEDPWTFGGGTKLEIKR
notes: also called CHI-hCDH6-1; CH1-CDH6-1
Max MFI [1]: 14300 MFI | Max MFI [2]: 30000 MFI | Max MFI [3]: 84 MFI | Max MFI [4]: 51300 MFI

B5: CHI-CDH6-3 (antibody, human IgG1, kappa, V domains shown)
VH: QVQLQQPGAELVKPGASVKLSCKASGYTFTSYWIHWVKQRPGQGLEWIGEINPSNGVTNCNENFKSKATLTVDKSSSTAYMQLSSLTSEDSAVYYCTIPNLLWWYFDVWGAGTTVTVSS
VL: DIQMTQSPASLSVSVGETVTITCRASENIYSNLAWYQQKQGKSPQLLVYEATNLADGVPSRFSGSGSGTQYSLKINSLQSEDFGSYYCQHFWGTLWTFGGGTKLEIKR
notes: also called CH1-CDH6-3; chimeric antibody of murine CDH6-3
Max MFI [1]: 5610 MFI | Max MFI [2]: 16800 MFI | Max MFI [3]: 11100 MFI | Max MFI [4]: 7550 MFI

B7: CHI-CDH6-4 (antibody, human IgG1, kappa, V domains shown)
VH: QVQLQQSGPELVKPGASVKISCKASGYAFSNFWMNWVKQRPGKGLEWIGWIYPGDGDTNYNGKFKDKATLTADKSSSTAYIQLSSLTSEDSAVYFCARLYDAWGFFDYWGQGTTLTVSS
VL: QIVLTQSPAIMSASPGQKVTITCSASSSVNYMHWYQQKLGSSPKLWIYDKSKLAPGVPARFSGSGSGTSYSLTISSMEAEDAASYFCHQWSSYPPMTFGGGTKLEIKR
notes: also called CH1-CDH6-4; chimeric antibody of murine CDH6-4
Max MFI [1]: 6540 MFI | Max MFI [2]: 22200 MFI | Max MFI [3]: 10200 MFI | Max MFI [4]: 75 MFI

B8: CHI-CDH6-7 (antibody, human IgG1, kappa, V domains shown)
VH: EVKLVESGGGLVKPGGSLKVSCAASGFTFSDHGMAWVRQAPGKGPEWVAFISNLAYSIYYADTVTGRFTISRENAKNTLYLEMSSLRSEDTAMYYCARVYVKWYFDVWGAGTTVTVSS
VL: DIQMTQSPASLSASVGETVTITCRASENIDSYLAWYQQKQGKSPQLLVFAATLLADGVPSRFSGSGSGTQYSLKINSLQSEDVARYYCQHYYSTPLTFGAGTKLELKR
notes: also called CH1-CDH6-7; chimeric antibody of murine CDH6-7
Max MFI [1]: 1020 MFI | Max MFI [2]: 17400 MFI | Max MFI [3]: 88 MFI | Max MFI [4]: 13000 MFI

B9: CHI-CDH6-5 (antibody, human IgG1, kappa, V domains shown)
VH: QVQLQQSGAELVRPGTSVKMSCKAAEYTFTNYWIGWVKQRPGHGLEWIGDLYPGGDHANYNEKFEGKATLTADTSSSTAYMQLSSLTSEDSAIYYCARGMLTTGFDSWGQGTTLTVSS
VL: DIVMSQSPSSLAVSAGEKVTMSCKSSQSLFNSRTRKNYLAWYQQKPGQSPKLLIYWASTRESGVPDRFTGSGSGTDFTLTISSVQAEDLAVYYCKQSYYLRTFGGGTKLEIKR
notes: also called CH1-CDH6-5; chimeric antibody of murine CDH6-5
Max MFI [1]: 4240 MFI | Max MFI [2]: 18700 MFI | Max MFI [3]: 112 MFI | Max MFI [4]: 343 MFI

The next lines start with results.

Max MFI [2]: 20600 MFI | Max MFI [3]: 23600 MFI | Max MFI [4]: 39100 MFI
B1: NOV0712 (antibody, human IgG1, kappa, V domains shown)
VH: QVQLLESGGGLVQPGGSLRLSCAASGFTFSSHGMHWVRQAPGKGLEWVSVISGSGSNTGYADSVKGRFTISRDNSKNTLYLQMNSLRAEDTAVYYCARQWGSYAFDSWGQGTLVTVSS
VL: DIQMTQSPSSLSASVGDRVTITCRASQSISSYLNWYQQKPGKAPKLLIYAVSTLQSGVPSRFSGSGSGTDFTLTISSLQPEDFATYYCQQSGTFPPTTFGQGTKVEIKR
notes: Positive control, variable regions from WO2018212136A1; also called positive control anti-human CDH6 antibody
binding result [1]: no binding (tested: MFI ~1.5 times that of hIgG1 (81))

Max MFI [1]: 1530 MFI | Max MFI [2]: 11800 MFI | Max MFI [3]: 5290 MFI | Max MFI [4]: 8390 MFI
B2: DS-H01L02 (antibody, human IgG1, kappa, V domains shown)
VH: EVQLVQSGAEVKKPGASVKVSCKASGYTFTRNFMHWVRQAPGQGLEWMGWIYPGDGETEYAQKFQGRVTITADTSTSTAYMELSSLRSEDTAVYYCARGVYGGFAGGYFDFWGQGTLVTVSS
VL: DIQMTQSPSSLSASVGDRVTITCKASQNIYKNLAWYQQKPGKAPKLLIYDANTLQTGVPSRFSGSGSGSDFTLTISSLQPEDFATYFCQQYYSGWAFGQGTKVEIKR
notes: as for B1

Max MFI [1]: 4040 MFI | Max MFI [2]: 26600 MFI | Max MFI [3]: 7210 MFI | Max MFI [4]: 814 MFI
B4: CHI-CDH6-14 (antibody, human IgG1, kappa, V domains shown)
VH: QIQLQQSGPELVKPGTSVKISCKASGYTFTDNYINWVRQRPGQGLEWIGWIYPGTGNSYYNEKFKGKATLTVDTSSSTAYMQFSSLTSEDSAVYLCASSYGDSFDYWGQGTTLTVSS
VL: DIQMTQTTSSLSASLGNRVTISCRASQDIRNYLNWYQQKPDGTFKLLISYTSRLHSGVPSRFSGSGSGTDYSLTVSNLEPEDIATYYCQQYSQLPWTFGGGSRLEIKR
notes: also called CHI-hCDH6-14; CH1-CDH6-14

Max MFI [1]: 4490 MFI | Max MFI [2]: 16600 MFI | Max MFI [3]: 9860 MFI | Max MFI [4]: 11000 MFI
B6: CHI-CDH6-12 (antibody, human IgG1, kappa, V domains shown)
VH: EVNLVESGGGLVQPGDSLTLSCSASGFTFTDYYMSWVRQFPGKALEWLALIRNKANSYTTEYSASVKGRFTISRDNSQSILYLQMNALRAEDSATYYCARDSYYSHDGFAYWGQGTLVTVSA
VL: DIVLTQSPASLAVSLGQRATISCRASKSVSTSSYTYMHWYQQKPGQPPKLLIKFASYLESGVPARFSGSGSGTDFTLNIHPVEEEDAATYYCQHSREFPFTFGTGTKLEIKR
notes: also called CH1-CDH6-12; chimeric antibody of murine CDH6-12
